Results as given in patent US20240382605A1 (IONIS PHARMACEUTICALS, published 2024).
Starred links: 1 amine or outer side, 2 acyl side, 3 side chain; linkers in the order of their positions; H or OH if unused. Positions of bridges follow the written chain, without caps; N, C: chain ends. Non-standard residues stand in square brackets, D forms with d. Primed or numbered codes have the meaning given here. No end group written: not given here. *: point of attachment. azidopropyl = N-terminal modification AzPro, [N-]=[N+]=NCCC*; TATB = O=C(C[*:1])N1CN(C(=O)C[*:2])CN(C(=O)C[*:3])C1; oligonucleotide 1590463 = not defined here; Lys(N3) = [N-]=[N+]=NCCCC[C@H](N)C(=O)O; Hyp = O=C(O)[C@@H]1C[C@@H](O)CN1; azidopropyl″ = [N-]=[N+]=NCCC*; Aze = O=C(O)[C@@H]1CCN1

B1: 1590463-BCY17870 (peptide)
peptide: NWNCSPDAHLGCISYCX
modifications: not fully specified; as printed NWNCSPDAHLGCISYC[K(N3)]: no N-terminal modification; C-terminal amide; three Cys bound to TATB scaffold; [K(N3)] 6-azido lysine at 17 joined via BCN linker to oligonucleotide 1590463
notes: also called Compound No. 1590463 conjugated to BCY17870
B2: 1590463-BCY17878 (peptide)
peptide: {oligonucleotide 1590463-BCN linker-azidopropyl}-CS[Hyp]DAHLGCISYC-NH2
modifications: linker 1-9-13 via TATB; reading uncertain; also: printed as CS[HyP]DAHLGCISYC
notes: also called Compound No. 1590463 conjugated to BCY17878
B3: 1590463-BCY17874 (peptide)
peptide: {oligonucleotide 1590463-BCN linker-azidopropyl}-CSPDAHLGCISYCEPW-NH2
modifications: linker 1-9-13 via TATB; reading uncertain
notes: also called Compound No. 1590463 conjugated to BCY17874
B4: 1590463-BCY17868 (peptide)
peptide: CSPDAHLGCISYCX
modifications: not fully specified; as printed CSPDAHLGCISYC[K(N3)]: N-terminal acetyl; C-terminal amide; three Cys bound to TATB scaffold; [K(N3)] 6-azido lysine at 14 joined via BCN linker to oligonucleotide 1590463
notes: also called Compound No. 1590463 conjugated to BCY17868
B5: 1590463-BCY17871 (peptide)
peptide: NWNCSPDAHLGCISYCX
modifications: not fully specified; as printed NWNCSPDAHLGCISYC[K(N3)]: N-terminal acetyl; C-terminal amide; three Cys bound to TATB scaffold; [K(N3)] 6-azido lysine at 17 joined via BCN linker to oligonucleotide 1590463
notes: also called Compound No. 1590463 conjugated to BCY17871
B6: 1590463-BCY17880 (peptide)
peptide: {oligonucleotide 1590463-BCN linker-azidopropyl}-CS[Aze]DAHLGCISYC-NH2
modifications: linker 1-9-13 via TATB; reading uncertain; also: printed as CiS[Aze]DAHLGCiiISYCiii
notes: also called Compound No. 1590463 conjugated to BCY17880
B7: 1590463-BCY17879 (peptide)
peptide: CSXDAHLGCISYCX
modifications: not fully specified; as printed CS[Aze]DAHLGCISYC[K(N3)]: N-terminal acetyl; C-terminal amide; three Cys bound to TATB scaffold; [Aze] azetidine at 3; [K(N3)] 6-azido lysine at 14 joined via BCN linker to oligonucleotide 1590463
notes: also called Compound No. 1590463 conjugated to BCY17879
B8: 1590463-BCY17869 (peptide)
peptide: {oligonucleotide 1590463-BCN linker-azidopropyl″}-CSPDAHLGCISYC-NH2
modifications: linker 1-9-13 via TATB; reading uncertain
notes: also called Compound No. 1590463 conjugated to BCY17869
B9: 1590463-BCY17877 (peptide)
peptide: CSXDAHLGCISYCX
modifications: not fully specified; as printed CS[HyP]DAHLGCISYC[K(N3)]: N-terminal acetyl; C-terminal amide; three Cys bound to TATB scaffold; [HyP] 4-trans-hydroxy-L-proline at 3; [K(N3)] 6-azido lysine at 14 joined via BCN linker to oligonucleotide 1590463
notes: also called Compound No. 1590463 conjugated to BCY17877
B10: 1590463-BCY17876 (peptide)
peptide: {oligonucleotide 1590463-BCN linker-azidopropyl}-CP[Hyp]DAYLGCISYC-NH2
modifications: linker 1-9-13 via TATB; reading uncertain; also: printed as CP[HyP]DAYLGCISYC
notes: also called Compound No. 1590463 conjugated to BCY17876
B11: 1590463-BCY17904 (peptide)
peptide: Ac-CS[Lys(N3)]DAHLGCISYC-NH2
modifications: linker 1-9-13 via TATB; not fully specified (residue 3); printed as CS[K(N3)]DAHLGCISYC; also: azide of K(N3) in loop clicked via BCN linker to oligonucleotide 1590463
notes: also called Compound No. 1590463 conjugated to BCY17904
B12: 1590463-BCY17903 (peptide)
peptide: Ac-C[Lys(N3)]PDAHLGCISYC-NH2
modifications: linker 1-9-13 via TATB; not fully specified (residue 2); printed as C[K(N3)]PDAHLGCISYC; also: azide of K(N3) in loop clicked via BCN linker to oligonucleotide 1590463
notes: also called Compound No. 1590463 conjugated to BCY17903
B13: 1590463-BCY17901 (peptide)
peptide: CPXDAYLGCXSYCEPWX
modifications: not fully specified; as printed CP[HyP]DAYLGC[tBuGly]SYCEPW[K(N3)]: N-terminal acetyl; C-terminal amide; three Cys bound to TATB scaffold; [HyP] 4-trans-hydroxy-L-proline at 3; [tBuGly] t-butyl glycine at 10; [K(N3)] 6-azido lysine at 17 joined via BCN linker to oligonucleotide 1590463
notes: also called Compound 1590463-BCY17901; Compound No. 1666846
B14: 1590463-BCY17892 (peptide)
peptide: CSPDAHLGCISYCEXWX
modifications: not fully specified; as printed CSPDAHLGCISYCE[Aze]W[K(N3)]: N-terminal acetyl; C-terminal amide; three Cys bound to TATB scaffold; [Aze] azetidine at 15; [K(N3)] 6-azido lysine at 17 joined via BCN linker to oligonucleotide 1590463
notes: also called Compound No. 1590463 conjugated to BCY17892
B15: 1590463-BCY17905 (peptide)
peptide: Ac-CSPD[Lys(N3)]HLGCISYC-NH2
modifications: linker 1-9-13 via TATB; not fully specified (residue 5); printed as CSPD[K(N3)]HLGCISYC; also: azide of K(N3) in loop clicked via BCN linker to oligonucleotide 1590463
notes: also called Compound No. 1590463 conjugated to BCY17905
B16: 1590463-BCY17882 (peptide)
peptide: NXNCSPDAHLGCISYCX
modifications: not fully specified; as printed N[dY]NCSPDAHLGCISYC[K(N3)]: N-terminal acetyl; C-terminal amide; three Cys bound to TATB scaffold; [dY] D-tyrosine at 2; [K(N3)] 6-azido lysine at 17 joined via BCN linker to oligonucleotide 1590463
notes: also called Compound No. 1590463 conjugated to BCY17882
B17: 1590463-BCY17890 (peptide)
peptide: CSPDAHLGCISYCEXWX
modifications: not fully specified; as printed CSPDAHLGCISYCE[dP]W[K(N3)]: N-terminal acetyl; C-terminal amide; three Cys bound to TATB scaffold; [dP] D-proline at 15; [K(N3)] 6-azido lysine at 17 joined via BCN linker to oligonucleotide 1590463
notes: also called Compound No. 1590463 conjugated to BCY17890
B18: 1590463-BCY17896 (peptide)
peptide: CPXDAYLGCXSYCX
modifications: not fully specified; as printed CP[HyP]DAYLGC[tBuGly]SYC[K(N3)]: N-terminal acetyl; C-terminal amide; three Cys bound to TATB scaffold; [HyP] 4-trans-hydroxy-L-proline at 3; [tBuGly] t-butyl glycine at 10; [K(N3)] 6-azido lysine at 14 joined via BCN linker to oligonucleotide 1590463
notes: also called Compound No. 1590463 conjugated to BCY17896
B19: 1590463-BCY17894 (peptide)
peptide: CSPDAHLGCISYCEXWX
modifications: not fully specified; as printed CSPDAHLGCISYCE[Pip]W[K(N3)]: N-terminal acetyl; C-terminal amide; three Cys bound to TATB scaffold; [Pip] pipecolic acid at 15; [K(N3)] 6-azido lysine at 17 joined via BCN linker to oligonucleotide 1590463
notes: also called Compound No. 1590463 conjugated to BCY17894
B20: 1590463-BCY17899 (peptide)
peptide: NWNCPXDAYLGCXSYCX
modifications: not fully specified; as printed NWNCP[HyP]DAYLGC[tBuGly]SYC[K(N3)]: N-terminal acetyl; C-terminal amide; three Cys bound to TATB scaffold; [HyP] 4-trans-hydroxy-L-proline at 6; [tBuGly] t-butyl glycine at 13; [K(N3)] 6-azido lysine at 17 joined via BCN linker to oligonucleotide 1590463
notes: also called Compound No. 1590463 conjugated to BCY17899
B21: 1614439-BCY17906 (peptide)
peptide: CSPDAHLGCISYCX
modifications: not fully specified; as printed CSPDAHLGCISYC[K(N3)(PYA-Maleimide)]: N-terminal acetyl; C-terminal amide; three Cys bound to TATB scaffold; modified lysine [K(N3)(PYA-Maleimide)] at 14 joined to oligonucleotide 1614439 (5' 6-mercaptohexanol linker)
notes: the coupling chemistry of this pair is not spelled out; also called Compound No. 1614439 conjugated to BCY17906
B22: 1602000-BCY17873 (peptide)
peptide: CSPDAHLGCISYCEPWX
modifications: as printed CSPDAHLGCISYCEPW[K(N3)]: N-terminal acetyl; C-terminal amide; three Cys bound to TATB scaffold; [K(N3)] 6-azido lysine at 17 joined to oligonucleotide 1602000 ([PEG1alkyne] linker)
notes: also called Compound No. 1602000 conjugated to BCY17873
B23: 1609732-BCY17873 (peptide)
peptide: CSPDAHLGCISYCEPWX
modifications: not fully specified; as printed CSPDAHLGCISYCEPW[K(N3)]: N-terminal acetyl; C-terminal amide; three Cys bound to TATB scaffold; [K(N3)] 6-azido lysine at 17 joined via BCN linker to oligonucleotide 1609732
notes: also called Compound No. 1609732 conjugated to BCY17873
B24: 1590463-BCY19407 (peptide)
peptide: CSPDAHLGCISYCEPWGGSGGSX
modifications: not fully specified; as printed CSPDAHLGCISYCEPWGGSGGS[K(N3)]: N-terminal acetyl; C-terminal amidated; three Cys bound to molecular scaffold; [K(N3)] 6-azido lysine at 23 joined via BCN linker to oligonucleotide 1590463
notes: also called Compound No. 1590463 conjugated to BCY19407
B25: 1590463-BCY19405 (peptide)
peptide: Ac-CSPDAHLGCISYCEPW
modifications: linker 1-9-13 via TATB; not fully specified (C-terminus); printed as CSPDAHLGCISYCEPW[PEG10][K(N3)]; also: azide of C-terminal K(N3) clicked via BCN linker to oligonucleotide 1590463
notes: also called Compound No. 1590463 conjugated to BCY19405
B26: 1590463-BCY19406 (peptide)
peptide: Ac-CSPDAHLGCISYCEPW
modifications: linker 1-9-13 via TATB; not fully specified (C-terminus); printed as CSPDAHLGCISYCEPW[PEG24][K(N3)]; also: azide of C-terminal K(N3) clicked via BCN linker to oligonucleotide 1590463
notes: also called Compound No. 1590463 conjugated to BCY19406

Target: T1, hCD71-Nluc fusion protein (human, UniProt P02786 1-760)
T1 construct: whole, on cells; Used as crude membrane fractions of HEK293 cells stably expressing hCD71-Nluc; also called human transferrin receptor, CD71, fused to NanoLuc; not shown: NanoLuc (ProMega) luciferase joined through its N-terminal Val
Assay: nanoBRET competition, tracer BCY17871-1598988 60 nM, HEK293 hCD71-Nluc membranes

T1 sequence (P02786 other isoform, or with tags, fused parts or gaps): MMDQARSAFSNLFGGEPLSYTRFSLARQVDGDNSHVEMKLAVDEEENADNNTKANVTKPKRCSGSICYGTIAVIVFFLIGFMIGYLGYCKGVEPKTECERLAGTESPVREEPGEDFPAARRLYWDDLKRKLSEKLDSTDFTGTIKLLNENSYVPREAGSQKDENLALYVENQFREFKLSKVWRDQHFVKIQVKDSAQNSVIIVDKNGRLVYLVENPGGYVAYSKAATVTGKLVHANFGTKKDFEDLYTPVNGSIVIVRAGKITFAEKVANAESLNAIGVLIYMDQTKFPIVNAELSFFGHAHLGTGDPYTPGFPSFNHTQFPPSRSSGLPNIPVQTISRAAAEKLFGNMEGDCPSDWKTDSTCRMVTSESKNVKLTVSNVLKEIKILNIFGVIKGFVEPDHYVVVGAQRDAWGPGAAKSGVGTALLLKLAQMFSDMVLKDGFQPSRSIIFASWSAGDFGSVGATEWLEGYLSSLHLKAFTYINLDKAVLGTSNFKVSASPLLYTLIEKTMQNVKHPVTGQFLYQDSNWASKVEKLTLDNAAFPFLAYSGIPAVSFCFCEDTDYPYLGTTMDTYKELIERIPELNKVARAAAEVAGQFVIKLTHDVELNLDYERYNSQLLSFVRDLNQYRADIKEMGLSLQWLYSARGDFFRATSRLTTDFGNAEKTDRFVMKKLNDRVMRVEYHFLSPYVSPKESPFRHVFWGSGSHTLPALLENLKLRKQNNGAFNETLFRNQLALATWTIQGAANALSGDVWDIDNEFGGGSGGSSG

| Binder | Ki [µM] |
| --- | --- |
| B1 | 0.007 |
| B2 | 0.074 |
| B3 | 0.01 |
| B4 | 0.02 |
| B5 | 0.006 |
| B6 | 0.102 |
| B7 | 0.025 |
| B8 | 0.055 |
| B9 | 0.018 |
| B10 | 0.029 |

Target: T1, hCD71-Nluc fusion protein
Assay: as above
Remark: another data set of the same source
Procedure: (§1) The mixtures were incubated for 3 hours at room temperature to reach equilibrium. To initiate BRET, 12.4 μL of 100 μM of the Nluc substrate furimazine was added to each well, and the mixtures were incubated for 5-30 minutes. The assay plate was read on a Promega GlowMax Discover plate reader at wavelengths of 450 nm and 600 nm, and the ratio of emissions at wavelengths 450/600 were used to yield % BRET efficiency. Data was subjected to non-linear regression, then fitted to a single site binding hyperbolic function.
(§2) In order to evaluate modified oligonucleotides conjugated to CD71 bicycle ligands and RNAi compounds conjugated to CD71 bicycle ligands, the assay was modified as follows. […] Modified oligonucleotides were conjugated to the bicycle ligands through a SPAAC reaction These were then added at a range of concentrations in triplicate assays points, and the mixtures were incubated for 3 hours at room temperature. BRET was initiated with the addition of furimazine and the assay was completed as described above.

| Binder | Ki [µM] |
| --- | --- |
| B11 | 0.031 |
| B12 | 0.125 |
| B13 | 0.001 |
| B14 | 0.011 |
| B15 | 0.148 |
| B16 | 0.023 |
| B17 | 0.017 |
| B18 | 0.002 |
| B19 | 0.008 |
| B20 | 0.004 |

Target: T1, hCD71-Nluc fusion protein
Assay: as above
Remark: another data set of the same source
Procedure: as §1, §2

| Binder | Ki [µM] |
| --- | --- |
| B21 | 0.002 |
| B22 | 0.001 |
| B11 | 0.005 |
| B12 | 0.024 |
| B13 | 0.0003 |
| B14 | 0.001 |
| B15 | 0.016 |
| B16 | 0.003 |
| B17 | 0.002 |
| B18 | 0.001 |
| B19 | 0.001 |
| B20 | 0.001 |
| B23 | 0.001 |

Target: T1, hCD71-Nluc fusion protein
Assay: as above
Remark: another data set of the same source
Procedure: as §1, §2

| Binder | Ki [µM] |
| --- | --- |
| B21 | 0.023 |
| B22 | 0.036 |
| B11 | 0.06 |
| B13 | 0.001 |
| B14 | 0.011 |
| B16 | 0.055 |
| B17 | 0.02 |
| B18 | 0.002 |
| B19 | 0.01 |
| B20 | 0.004 |
| B23 | 0.01 |

Target: T1, hCD71-Nluc fusion protein
Assay: as above
Remark: another data set of the same source
Procedure: as §1, §2

| Binder | Ki [µM] |
| --- | --- |
| B24 | 0.002 |
| B25 | 0.003 |
| B26 | 0.002 |

Target: T2, CD71 (Homo sapiens (Human), UniProt P02786 89-760)
T2 construct: also called transferrin receptor; TfR1
Assay: SPR Biacore X100, conjugate duplexed to biotin-DNA on streptavidin chip, CD71 injected 6.25-100 nM, 1:1 fit
Procedure: The binding affinity for each of the following modified oligonucleotides conjugated to CD71 bicycle ligands was tested on a Biacore X100 surface plasmon resonance (SPR) instrument. 200 units of modified oligonucleotides conjugated to CD71 bicycle ligand were immobilized on a streptavidin chip by injecting a 20 nM solution of 5′-Biotin-labeled DNA (5′-Biotin-TEG-DNA complement to modified oligonucleotide) duplexed with modified oligonucleotides conjugated to CD71 bicycle ligand in HBS—P (10 mM HEPES, pH 7.4, 150 mM NaCl, 0.0005% Surfactant P20) running buffer. […] Kinetic and equilibrium binding analysis was performed using Biacore X100 Evaluation Software, applying 1:1 binding fit.

T2 sequence (P02786 89-760 limits assumed, form in doubt): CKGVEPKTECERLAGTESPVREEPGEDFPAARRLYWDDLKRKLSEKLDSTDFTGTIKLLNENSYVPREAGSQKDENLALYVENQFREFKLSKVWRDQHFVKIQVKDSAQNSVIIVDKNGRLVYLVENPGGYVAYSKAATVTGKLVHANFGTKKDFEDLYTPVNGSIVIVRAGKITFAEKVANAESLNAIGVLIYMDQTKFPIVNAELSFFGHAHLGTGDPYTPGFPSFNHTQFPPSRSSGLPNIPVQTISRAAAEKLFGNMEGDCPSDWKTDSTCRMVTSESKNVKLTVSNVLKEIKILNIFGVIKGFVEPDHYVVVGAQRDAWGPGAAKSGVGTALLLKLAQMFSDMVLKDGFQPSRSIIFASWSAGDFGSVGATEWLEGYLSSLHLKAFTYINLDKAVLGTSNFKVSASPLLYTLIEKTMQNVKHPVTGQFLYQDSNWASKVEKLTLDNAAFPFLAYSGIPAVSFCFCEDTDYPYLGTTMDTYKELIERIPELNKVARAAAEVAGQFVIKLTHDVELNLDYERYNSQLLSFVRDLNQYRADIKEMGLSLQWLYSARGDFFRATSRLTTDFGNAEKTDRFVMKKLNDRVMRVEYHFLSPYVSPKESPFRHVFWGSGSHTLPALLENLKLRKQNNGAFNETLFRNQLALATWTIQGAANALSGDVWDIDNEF

| Binder | Kd [µM] |
| --- | --- |
| B1 | 0.0001 |
| B2 | 0.126 |
| B3 | 0.032 |
| B4 | 0.0009 |
| B5 | 0.0024 |
| B6 | 0.0082 |
| B7 | 0.0312 |
| B8 | 0.0145 |
| B10 | 0.0954 |
